The assay deals with T1, Synaptotagmin Like 1 (SYTL1), on the HuProt v3.1 human proteome array (human, UniProt Q8IYJ3 1-562).
T1 construct: Synaptotagmin Like 1 (SYTL1), human; as arrayed on HuProt v3.1; source: spotted on the HuProt v3.1 human proteome array (CDI NextGen Proteomics)
T1 sequence (looked up): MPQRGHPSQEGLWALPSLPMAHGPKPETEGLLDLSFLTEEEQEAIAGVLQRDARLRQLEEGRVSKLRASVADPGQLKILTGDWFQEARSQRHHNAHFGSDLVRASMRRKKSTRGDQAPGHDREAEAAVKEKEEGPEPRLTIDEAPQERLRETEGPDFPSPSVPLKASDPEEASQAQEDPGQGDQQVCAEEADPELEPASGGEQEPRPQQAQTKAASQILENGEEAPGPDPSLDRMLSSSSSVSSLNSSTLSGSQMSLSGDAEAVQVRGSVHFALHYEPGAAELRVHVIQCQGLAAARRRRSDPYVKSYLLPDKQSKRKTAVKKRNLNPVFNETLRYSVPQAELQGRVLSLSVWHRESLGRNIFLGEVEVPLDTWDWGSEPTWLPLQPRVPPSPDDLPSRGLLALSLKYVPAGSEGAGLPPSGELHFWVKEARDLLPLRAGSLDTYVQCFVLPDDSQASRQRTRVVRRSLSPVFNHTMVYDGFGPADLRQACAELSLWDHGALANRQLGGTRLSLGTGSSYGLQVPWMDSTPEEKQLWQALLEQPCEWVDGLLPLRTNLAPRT
The assay is described as follows: peptide or protein array; HuProt v3.1 human proteome array probed with recombinant AKT2 at 1 ug/mL; GenePix analysis; only interactions with a Z-score above 6 considered. To be noted: both partners purified.

B1: recombinant AKT2 (RAC-beta serine/threonine-protein kinase) (enzyme, human, UniProt P31751 1-481, looked up)
chain: MNEVSVIKEGWLHKRGEYIKTWRPRYFLLKSDGSFIGYKERPEAPDQTLPPLNNFSVAECQLMKTERPRPNTFVIRCLQWTTVIERTFHVDSPDEREEWMRAIQMVANSLKQRAPGEDPMDYKCGSPSDSSTTEEMEVAVSKARAKVTMNDFDYLKLLGKGTFGKVILVREKATGRYYAMKILRKEVIIAKDEVAHTVTESRVLQNTRHPFLTALKYAFQTHDRLCFVMEYANGGELFFHLSRERVFTEERARFYGAEIVSALEYLHSRDVVYRDIKLENLMLDKDGHIKITDFGLCKEGISDGATMKTFCGTPEYLAPEVLEDNDYGRAVDWWGLGVVMYEMMCGRLPFYNQDHERLFELILMEEIRFPRTLSPEAKSLLAGLLKKDPKQRLGGGPSDAKEVMEHRFFLSINWQDVVQKKLLPPFKPQVTSEVDTRYFDDEFTAQSITITPPDRYDSLGLLELDQRTHFPQFSYSASIRE
notes: AKT2, RAC-beta serine/threonine-protein kinase; recombinant protein used as the probe on the HuProt v3.1 array; source: recombinant
Consider B1, for which the binding result was “binds”.

For the origin of these results see PMC11271488, “The AKT2/SIRT5/TFEB pathway as a potential therapeutic target in non-neovascular AMD” (Nature Communications, 2024).
